Here are results for 1 molecule from patent publication CN114641502A (SHANGHAI YINGMING BIOTECHNOLOGY CO LTD, dated 2022).

Assay [1] concerns the target T1, 小鼠TIGIT (full length, on cells) (mouse, UniProt P86176 29-249).
T1 construct: whole, on cells; also called mouse TIGIT; W364-FlpinCHO.mpro1.FL
T1 sequence (looked up): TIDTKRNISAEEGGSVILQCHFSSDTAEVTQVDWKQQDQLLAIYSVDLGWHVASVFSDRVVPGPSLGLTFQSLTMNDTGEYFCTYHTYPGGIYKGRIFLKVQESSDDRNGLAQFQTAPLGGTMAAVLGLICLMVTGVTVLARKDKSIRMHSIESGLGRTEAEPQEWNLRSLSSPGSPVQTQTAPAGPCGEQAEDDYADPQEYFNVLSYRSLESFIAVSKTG
Briefly: flow cytometry on Flp-In CHO cells expressing mouse TIGIT. (Flow cytometry measures light scatter and fluorescence of single cells or particles in a stream.)

The target of assay [2] is T2, 人TIGIT (full length, on cells) (human, UniProt Q495A1 22-244).
T2 construct: whole, on cells; also called human TIGIT; hTIGIT
T2 sequence (looked up): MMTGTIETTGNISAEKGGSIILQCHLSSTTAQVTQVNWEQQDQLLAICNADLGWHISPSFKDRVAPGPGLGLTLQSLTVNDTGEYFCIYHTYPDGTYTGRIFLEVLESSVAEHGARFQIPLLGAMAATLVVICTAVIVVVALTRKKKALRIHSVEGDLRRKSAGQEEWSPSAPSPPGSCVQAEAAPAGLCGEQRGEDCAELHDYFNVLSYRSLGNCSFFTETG
Put plainly: flow cytometry affinity on CHOK1 cells over-expressing human TIGIT, quantitative beads.

The target of assay [3] is T2, 人TIGIT (full length, on cells). Briefly: flow cytometry on 293F cells expressing human TIGIT.
The target of assay [4] is T3, 食蟹猴TIGIT (full length, on cells) (cynomolgus monkey, UniProt A0A7N9I9V4 89-312).
T3 construct: whole, on cells; also called cynomolgus TIGIT; W364-FlpinCHO.cynopro1.FL
T3 sequence (A0A7N9I9V4 entry or part of it): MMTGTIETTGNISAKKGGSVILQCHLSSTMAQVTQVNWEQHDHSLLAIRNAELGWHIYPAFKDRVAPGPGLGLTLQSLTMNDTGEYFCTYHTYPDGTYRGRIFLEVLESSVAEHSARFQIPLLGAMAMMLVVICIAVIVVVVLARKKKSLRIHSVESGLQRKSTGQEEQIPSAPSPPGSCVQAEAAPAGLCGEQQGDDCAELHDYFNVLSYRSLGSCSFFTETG
Briefly: flow cytometry on Flp-In CHO cells expressing cynomolgus TIGIT.

For assay [5], the target named is T2, 人TIGIT (full length, on cells). Put plainly: cell-based or functional assay.
A further assay addresses T4, W364-hPro1.ECD.His (human, UniProt Q495A1 22-141).
T4 construct: extracellular domain; Analyte in the SPR assay; 20 kDa used for molar concentration; also called W364-hPro1.ECD.his (Sino); 人TIGIT胞外结构域
T4 sequence (looked up): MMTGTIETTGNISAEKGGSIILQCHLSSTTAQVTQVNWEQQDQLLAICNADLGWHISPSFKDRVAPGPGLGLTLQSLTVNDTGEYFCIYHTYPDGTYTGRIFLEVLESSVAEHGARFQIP
Briefly: SPR (Biacore 8K), antibody captured by anti-human IgG Fc, TIGIT ECD as analyte, 1:1 model. In general terms: In SPR one partner is held on a chip, and binding of the other changes the refractive index at the surface.

Assay [6] has as its target T2, 人TIGIT (full length, on cells). Briefly: flow cytometry competition on 293F cells expressing human TIGIT; competitor CD155.ECD-mFc at 2 μg/mL.

B1: W3645-2.131.4-hIgG1L3 (antibody, V domains shown)
VH: QLQLQESGPGLVKPSETLSLTCAVSGGSITSSSYYWGWIRQPPGKGLEWIGSIFFSGITYYNPSLKSRVTVSVDTSKNQFSLKLSSVTAADTAIYYCARRGLGGILASGYFDYWGQGTLVTVSS
VL: QSALTQPASVSGSPGQSITISCTGTSNDVGGYNYVSWYQQHPGKAPRLLIFDVSNRRTGISNRFSGSKSGITASLTISGLQAEDEADYYCSSYTSISTLVVFGGGTKLTVL
notes: Fully human (OMT rat derived), human IgG1; also called WBP3645先导抗体; WBP3645最终先导抗体
What is called EC50 is the concentration giving half of the maximal effect. A low value points to higher potency in that assay. For orientation: Kd means the free concentration of one partner at which half of the binding sites on the other are occupied at equilibrium, for simple one-to-one binding. A low value points to a tighter complex. In general, IC50 refers to the concentration that inhibits the measured activity by half. Read a high IC50 as weaker potency. As to B1, the values for the concentration for a half-maximal effect (EC50) in assay [1], in assay [3] and in assay [4] were 0.14 nM, 0.17 nM and 0.05 nM, respectively. The Kd amounted to 0.027 nM in assay [2] and 0.75 nM with W364-hPro1.ECD.His. Moreover, the “ADCC EC50 (LDH release, PBMC effectors)” value in assay [5] turned out to be 0.0019 nM. The “NFAT-荧光素酶报告基因 EC50” value in assay [5] turned out to be 0.92 nM. Besides, in assay [6], the half-maximal inhibitory concentration (IC50) turned out to be 0.14 nM.
